Test results: patent US20230355734A1 (VIRGINIA COMMONWEALTH UNIVERSITY, published 2023)

B1: FhbB3 of strain 33521, E45A or D58A site-directed mutant (receptor)
chain: FKMNTAQKAHYEAFISGLENAVKDNPMTAQNVKEGLDLANVGAAALNFKIVDKKAGTEIAKGTKAAELRKRFVPKKKA
notes: also called FhbB333521 mutant; not shown: N-terminal hexa-histidine tag from vector pET46-Ek LIC
B2: FhbB2 of strain SP50, E45A or D58A site-directed mutant (receptor)
chain: FKMNTAQKAHYEAFIKVLEKAAERNPIDAQVVVEALGAVNIDALAKNLNYQVIDKKPGTDIATGTKAAELRKRFVPKKIKA
notes: also called FhbB2SP50 mutant; not shown: N-terminal hexa-histidine tag from vector pET46-Ek LIC
B3: FhbB1 of strain 35405, E45A site-directed mutant (receptor)
chain: TFKMNTAQKAHYEKFINALENALKTRHIPAGAVIDMLAEINTEALALDYQIVDKKPGTSIAQGTKAAALRKRFIPKKIKA
notes: also called FhbB135405 mutant; not shown: N-terminal hexa-histidine tag from vector pET46-Ek LIC
B4: FhbB3 of strain 35404, E45A or D58A site-directed mutant (receptor)
chain: FKMNTAQNAHYEAFISGLERGAKDNPMLAQVVKAGLDLANDGAAALNYKIVDKKPGTDIAKGTKAAELRKRFIPKKIKT
notes: also called FhbB335404 mutant; not shown: N-terminal hexa-histidine tag from vector pET46-Ek LIC
B5: FhbB-ch4 tetravalent chimeric (FhbB135405-FhbB2SP50-FhbB333521-FhbB335404, mutated) (other)
chain: TFKMNTAQKAHYEKFINALENALKTRHIPAGAVIDMLAEINTEALALDYQIVDKKPGTSIAQGTKAAALRKRFIPKKIKAFKMNTAQKAHYEAFIKVLEKAAERNPIDAQVVVEALGAVNIDALAKNLNYQVIDKKPGTDIATGTKAAELRKRFVPKKIKAFKMNTAQKAHYEAFISGLENAVKDNPMTAQNVKEGLDLANVGAAALNFKIVDKKAGTEIAKGTKAAELRKRFVPKKKAFKMNTAQNAHYEAFISGLERGAKDNPMLAQVVKAGLDLANDGAAALNYKIVDKKPGTDIAKGTKAAELRKRFIPKKIK
notes: purified on nickel; also called Fhb-ch4; not shown: N-terminal hexa-histidine tag from vector pET46-Ek LIC
B6: FhbB3SP64E45A/D58A (receptor)
chain: FKMNTAQKAHYEAFIADLERAAKDNPMPAHIVKAGLDAANAIAATLNFKIVDKKAGTEIAKGTKAAELRKRFVPKKK
notes: also called FhbBSP64E45A/D58A; FhbB3SP64 mutant; not shown: N-terminal hexa-histidine tag from vector pET46-Ek LIC
B7: FhbB-ch5 pentavalent chimeric (FhbB135405-FhbB2SP50-FhbB333521-FhbB335404-FhbB3SP64, mutated) (other)
chain: TFKMNTAQKAHYEKFINALENALKTRHIPAGAVIDMLAEINTEALALDYQIVDKKPGTSIAQGTKAAALRKRFIPKKIKAFKMNTAQKAHYEAFIKVLEKAAERNPIDAQVVVEALGAVNIDALAKNLNYQVIDKKPGTDIATGTKAAELRKRFVPKKIKAFKMNTAQKAHYEAFISGLENAVKDNPMTAQNVKEGLDLANVGAAALNFKIVDKKAGTEIAKGTKAAELRKRFVPKKKAFKMNTAQNAHYEAFISGLERGAKDNPMLAQVVKAGLDLANDGAAALNYKIVDKKPGTDIAKGTKAAELRKRFIPKKIKTFKMNTAQKAHYEAFIADLERAAKDNPMPAHIVKAGLDAANAIAATLNFKIVDKKAGTEIAKGTKAAELRKRFVPKKK
notes: purified on nickel; not shown: N-terminal hexa-histidine tag from vector pET46-Ek LIC

Molecular target: T1, human Factor H (human, UniProt P08603 19-1231)
T1 construct: Purified human FH bought from CompTech; added in solution at 10 ug/mL in the ELISA and 40 ug/mL in the cleavage assay; also called FH; human FH
T1 sequence (P08603 19-1231 limits assumed): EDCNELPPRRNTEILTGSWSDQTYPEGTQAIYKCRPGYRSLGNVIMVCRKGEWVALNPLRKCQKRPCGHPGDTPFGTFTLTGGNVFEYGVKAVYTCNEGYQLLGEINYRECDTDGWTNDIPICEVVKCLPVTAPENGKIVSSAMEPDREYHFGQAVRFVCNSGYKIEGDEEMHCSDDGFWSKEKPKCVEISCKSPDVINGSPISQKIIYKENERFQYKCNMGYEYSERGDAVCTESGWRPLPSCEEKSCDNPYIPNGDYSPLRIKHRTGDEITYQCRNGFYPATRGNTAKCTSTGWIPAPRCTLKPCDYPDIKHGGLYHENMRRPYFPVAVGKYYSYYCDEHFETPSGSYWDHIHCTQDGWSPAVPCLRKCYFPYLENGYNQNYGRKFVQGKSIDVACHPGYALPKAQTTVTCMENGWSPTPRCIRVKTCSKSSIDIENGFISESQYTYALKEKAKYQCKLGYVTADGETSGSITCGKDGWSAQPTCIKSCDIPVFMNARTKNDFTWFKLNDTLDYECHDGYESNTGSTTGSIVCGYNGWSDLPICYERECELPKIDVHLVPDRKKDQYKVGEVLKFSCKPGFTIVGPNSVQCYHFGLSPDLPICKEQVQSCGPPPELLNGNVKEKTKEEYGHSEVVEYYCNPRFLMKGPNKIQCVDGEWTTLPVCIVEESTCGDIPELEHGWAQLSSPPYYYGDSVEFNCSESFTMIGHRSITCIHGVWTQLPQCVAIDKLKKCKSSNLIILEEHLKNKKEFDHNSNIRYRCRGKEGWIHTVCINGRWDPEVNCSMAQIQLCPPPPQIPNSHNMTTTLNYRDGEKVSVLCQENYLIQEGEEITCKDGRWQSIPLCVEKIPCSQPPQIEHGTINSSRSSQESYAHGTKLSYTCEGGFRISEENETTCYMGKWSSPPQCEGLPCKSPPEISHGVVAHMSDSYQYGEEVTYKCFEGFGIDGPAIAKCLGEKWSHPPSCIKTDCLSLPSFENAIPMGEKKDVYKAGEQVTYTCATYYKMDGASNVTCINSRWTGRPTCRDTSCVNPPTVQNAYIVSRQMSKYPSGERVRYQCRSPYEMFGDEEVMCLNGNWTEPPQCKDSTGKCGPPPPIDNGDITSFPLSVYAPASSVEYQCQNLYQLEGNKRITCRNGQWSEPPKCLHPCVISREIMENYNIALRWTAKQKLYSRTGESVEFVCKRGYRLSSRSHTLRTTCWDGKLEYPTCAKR
Assay: ELISA, immobilized recombinant protein, FH in solution

Does B1 bind?
Result: no binding (tested: 10 µg mL^-1 human FH)

Does B2 bind?
Result: no binding (tested: 10 µg mL^-1 human FH)

Does B3 bind?
Result: no binding (tested: 10 µg mL^-1 human FH)

Does B4 bind?
Result: no binding (tested: 10 µg mL^-1 human FH)

Does B5 bind?
Result: no binding (tested: 10 µg mL^-1 human FH)

Molecular target: T1, human Factor H
Assay: ELISA, immobilized recombinant protein, human FH 10 ug/mL

Does B6 bind?
Result: binds

Does B7 bind?
Result: binds
